Source: US20240270821A1, “GIP/GLP1/GCG TRI-RECEPTOR AGONISTS AND USES THEREOF” (priority 2023, published 2024)
Numbering of substitutions follows the chain as printed.

B1: Example 767 (peptide)
chain: YXQGTXTSDXXIXLDXKYQXEFIEXLVEGGPSSGAPPPSGS
modifications: synthetic construct; SITE 2: note = 2-Aminoisobutyric Acid; SITE 6: note = alpha-methyl-2-fluoro-L-phenylalanine; SITE 10: note = 3-(4-Pyridyl)-L-alanine; SITE 11: note = alpha-methyl-L-serine; SITE 13: note = alpha-methyl-leucine; SITE 16: note = L-ornithine; SITE 17: note = Lysine is chemically mo
B2: Example 768 (peptide)
chain: B1 chain with D15E, Y18A
modifications: synthetic construct; SITE 2: note = 2-Aminoisobutyric Acid; SITE 6: note = alpha-methyl-2-fluoro-L-phenylalanine; SITE 10: note = 3-(4-Pyridyl)-L-alanine; SITE 11: note = alpha-methyl-L-serine; SITE 13: note = alpha-methyl-leucine; SITE 16: note = L-ornithine; SITE 17: note = Lysine is chemically mo
B3: Example 788 (peptide)
chain: YXQGTFTSDFSQXLDKKAQXAFIEYLLEXGESSGEPPPSGS
modifications: synthetic construct; SITE 2: note = 2-Aminoisobutyric Acid; SITE 13: note = alpha-methyl-leucine; SITE 17: note = Lysine is chemically modified through conjugation of the epsilon-amino group of the Lysine side chain with (2-[2-(2-Amino-ethoxy)-ethoxy]-acetyl)-(gamma-Glu)-CO-(CH2) 16-CO2H; SITE 20: n
B4: Example 790 (peptide)
chain: B3 chain with S41E
modifications: synthetic construct; SITE 2: note = 2-Aminoisobutyric Acid; SITE 13: note = alpha-methyl-leucine; SITE 17: note = Lysine is chemically modified through conjugation of the epsilon-amino group of the Lysine side chain with (2-[2-(2-Amino-ethoxy)-ethoxy]-acetyl)-(gamma-Glu)-CO-(CH2) 16-CO2H; SITE 20: n
B5: Example 789 (peptide)
chain: B3 chain with E35A, S41E
modifications: synthetic construct; SITE 2: note = 2-Aminoisobutyric Acid; SITE 13: note = alpha-methyl-leucine; SITE 17: note = Lysine is chemically modified through conjugation of the epsilon-amino group of the Lysine side chain with (2-[2-(2-Amino-ethoxy)-ethoxy]-acetyl)-(gamma-Glu)-CO-(CH2) 16-CO2H; SITE 20: n
B6: Example 805 (peptide)
chain: B3 chain with Q12K, L27I, G30S, E31P, E35A
modifications: synthetic construct; SITE 2: note = 2-Aminoisobutyric Acid; SITE 13: note = alpha-methyl-leucine; SITE 17: note = Lysine is chemically modified through conjugation of the epsilon-amino group of the Lysine side chain with (2-[2-(2-Amino-ethoxy)-ethoxy]-acetyl)-(gamma-Glu)-CO-(CH2) 16-CO2H; SITE 20: n
B7: Example 801 (peptide)
chain: B3 chain with F10X, Q12K, L27I, E31P, E35A
modifications: synthetic construct; SITE 2: note = 2-Aminoisobutyric Acid; SITE 10: note = 3-(4-Pyridyl)-L-alanine; SITE 13: note = alpha-methyl-leucine; SITE 17: note = Lysine is chemically modified through conjugation of the epsilon-amino group of the Lysine side chain with (2-[2-(2-Amino-ethoxy)-ethoxy]-acetyl)
B8: Example 806 (peptide)
chain: B3 chain with Q12R, L27I, G30S, E31P, E35A
modifications: synthetic construct; SITE 2: note = 2-Aminoisobutyric Acid; SITE 13: note = alpha-methyl-leucine; SITE 17: note = Lysine is chemically modified through conjugation of the epsilon-amino group of the Lysine side chain with (2-[2-(2-Amino-ethoxy)-ethoxy]-acetyl)-(gamma-Glu)-CO-(CH2) 16-CO2H; SITE 20: n
B9: Example 770 (peptide)
chain: YXQGTFTSDFSXXLDKKAQXAFIEYLLEGGPSSXAPPPGGS
modifications: not fully specified; synthetic construct; SITE 2: note = 2-Aminoisobutyric Acid; SITE 12: note = L-ornithine; SITE 13: note = alpha-methyl-leucine; SITE 17: note = Lysine is chemically modified through conjugation of the epsilon-amino group of the Lysine side chain with (gamma-Glu)2-CO-(CH2)16-CO2H; SITE 20: note = 2-Am
B10: Example 794 (peptide)
chain: B3 chain with Q12R, L27I, X29G, E35A
modifications: synthetic construct; SITE 2: note = 2-Aminoisobutyric Acid; SITE 13: note = alpha-methyl-leucine; SITE 17: note = Lysine is chemically modified through conjugation of the epsilon-amino group of the Lysine side chain with (2-[2-(2-Amino-ethoxy)-ethoxy]-acetyl)-(gamma-Glu)-CO-(CH2) 16-CO2H; SITE 20: n
B11: Example 775 (peptide)
chain: B3 chain with X29A, E31P, E35A
modifications: synthetic construct; SITE 2: note = 2-Aminoisobutyric Acid; SITE 13: note = alpha-methyl-leucine; SITE 17: note = Lysine is chemically modified through conjugation of the epsilon-amino group of the Lysine side chain with (2-[2-(2-Amino-ethoxy)-ethoxy]-acetyl)-(gamma-Glu)-CO-(CH2) 16-CO2H; SITE 20: n
B12: Example 774 (peptide)
chain: B9 chain with X12Q, Y25W, X34G, G39E
modifications: synthetic construct; SITE 2: note = 2-Aminoisobutyric Acid; SITE 13: note = alpha-methyl-leucine; SITE 17: note = Lysine is chemically modified through conjugation of the epsilon-amino group of the Lysine side chain with (2-[2-(2-Amino-ethoxy)-ethoxy]-acetyl)-(gamma-Glu)-CO-(CH2) 16-CO2H; SITE 20: n
B13: Example 804 (peptide)
chain: B3 chain with Q12X, L27I, G30S, E31P, E35A
modifications: synthetic construct; SITE 2: note = 2-Aminoisobutyric Acid; SITE 12: note = L-ornithine; SITE 13: note = alpha-methyl-leucine; SITE 17: note = Lysine is chemically modified through conjugation of the epsilon-amino group of the Lysine side chain with (2-[2-(2-Amino-ethoxy)-ethoxy]-acetyl)-(gamma-Glu)
B14: Example 782 (peptide)
chain: B3 chain with E31P, E35A, S41X
modifications: synthetic construct; SITE 2: note = 2-Aminoisobutyric Acid; SITE 13: note = alpha-methyl-leucine; SITE 17: note = Lysine is chemically modified through conjugation of the epsilon-amino group of the Lysine side chain with (2-[2-(2-Amino-ethoxy)-ethoxy]-acetyl)-(gamma-Glu)-CO-(CH2) 16-CO2H; SITE 20: n

What was measured:
Assay in all cases: cell-based or functional assay
[1] = molecular target: hGLP-1R (Homo sapiens, UniProt P43220)
Chain of hGLP-1R (P43220 24-463): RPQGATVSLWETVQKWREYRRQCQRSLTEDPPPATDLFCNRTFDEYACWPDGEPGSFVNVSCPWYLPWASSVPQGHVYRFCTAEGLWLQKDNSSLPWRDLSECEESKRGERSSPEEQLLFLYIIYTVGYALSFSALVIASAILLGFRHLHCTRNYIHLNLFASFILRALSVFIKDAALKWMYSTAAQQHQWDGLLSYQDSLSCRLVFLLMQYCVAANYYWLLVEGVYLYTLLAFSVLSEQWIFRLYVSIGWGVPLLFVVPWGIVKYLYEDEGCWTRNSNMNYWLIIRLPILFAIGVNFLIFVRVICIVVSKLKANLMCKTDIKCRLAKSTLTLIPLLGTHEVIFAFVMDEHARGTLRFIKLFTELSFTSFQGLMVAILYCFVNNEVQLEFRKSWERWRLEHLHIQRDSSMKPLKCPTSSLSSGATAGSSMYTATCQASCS

[2] = molecular target: T1, human GIP receptor (human) (UniProt P48546)
T1 sequence (looked up): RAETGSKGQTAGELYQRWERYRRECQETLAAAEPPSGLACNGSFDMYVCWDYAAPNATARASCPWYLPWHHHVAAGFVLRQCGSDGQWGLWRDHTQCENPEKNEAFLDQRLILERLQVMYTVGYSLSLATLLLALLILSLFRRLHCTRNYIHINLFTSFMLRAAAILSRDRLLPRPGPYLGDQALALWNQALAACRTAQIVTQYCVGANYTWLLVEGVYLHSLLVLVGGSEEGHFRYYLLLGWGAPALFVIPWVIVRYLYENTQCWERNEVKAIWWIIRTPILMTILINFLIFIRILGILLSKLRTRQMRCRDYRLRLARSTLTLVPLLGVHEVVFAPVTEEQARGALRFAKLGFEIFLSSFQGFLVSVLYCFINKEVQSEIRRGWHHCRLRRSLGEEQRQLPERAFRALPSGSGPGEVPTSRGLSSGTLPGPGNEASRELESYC

[3] = molecular target: human glucagon receptor (human) (UniProt P47871)
Chain of human glucagon receptor (human) (P47871 26-477): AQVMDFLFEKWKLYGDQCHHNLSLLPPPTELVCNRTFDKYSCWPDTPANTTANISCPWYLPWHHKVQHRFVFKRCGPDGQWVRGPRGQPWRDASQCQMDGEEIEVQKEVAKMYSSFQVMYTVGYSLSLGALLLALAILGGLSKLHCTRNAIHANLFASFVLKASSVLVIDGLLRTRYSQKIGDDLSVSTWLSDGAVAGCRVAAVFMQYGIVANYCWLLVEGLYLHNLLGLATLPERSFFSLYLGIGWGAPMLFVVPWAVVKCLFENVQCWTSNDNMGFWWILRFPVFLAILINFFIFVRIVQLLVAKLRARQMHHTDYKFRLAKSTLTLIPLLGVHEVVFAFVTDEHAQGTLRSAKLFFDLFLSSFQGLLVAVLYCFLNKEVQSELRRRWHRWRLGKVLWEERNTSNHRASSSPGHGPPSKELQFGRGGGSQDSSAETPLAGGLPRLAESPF

Row | Binder | Relative cAMP EC50 [1] [nM] | cAMP Rel EC50, nM (1% HSA) [1] [nM] | Relative cAMP EC50 [2] [nM] | cAMP Rel EC50, nM (1% HSA) [2] [nM] | Relative cAMP EC50 [3] [nM] | cAMP Rel EC50, nM (1% HSA) [3] [nM] | cAMP Rel EC50 (1% HSA) [1] [nM] | cAMP Rel EC50 (1% HSA) [2] [nM] | cAMP Rel EC50 (1% HSA) [3] [nM]
1 | B1 | 0.299 | 56.8 | 0.00792 | 1.51 | 1.13 | 207 |  |  | 
2 | B2 | 0.259 | 33.2 | 0.0294 | 2.65 | 10.3 | 2270 |  |  | 
3 | B3 | 2.5 | 528 | 0.0923 | 20.7 | 3.36 | 1420 |  |  | 
4 | B4 | 3.19 | 858 | 0.131 | 34.1 | 3.87 | 1200 |  |  | 
5 | B5 | 2.74 | 379 | 0.101 | 20.4 | 3.3 | 1200 |  |  | 
6 | B6 | 0.715 |  | 0.0875 |  | 3.97 |  | 146 | 13 | 1210
7 | B7 | 0.938 |  | 0.147 |  | 5.51 |  | 133 | 18.1 | 1200
8 | B8 | 0.706 |  | 0.124 |  | 8.25 |  | 128 | 15.1 | 2760
9 | B9 | 3.91 | 240 | 0.244 | 18.2 | 5.37 | 390 |  |  | 
10 | B10 | 1.26 | 233 | 0.468 | 68.4 | 1.21 | 297 |  |  | 
11 | B11 | 0.993 | 202 | 0.105 | 25.8 | 4.36 | 724 |  |  | 
12 | B12 | 1.89 | 404 | 0.128 | 32.8 | 13.7 | 2330 |  |  | 
13 | B13 | 0.915 |  | 0.0751 |  | 11.5 |  | 161 | 17.6 | 2310
14 | B14 | 1.94 | 354 | 0.0711 | 15.5 | 4.96 | 1380 |  |  | 
